{
  "source": "patent US7119182",
  "about": "(University of California, dated 2006)",
  "binders": {"B1": {"name": "Mpr-F(Cha) (Cha)RFPNDK-NH2 (peptide)", "peptide": "[Mpa]F[Cha][Cha]RFPNDK-NH2", "SMILES": "N=C(N)NCCC[C@H](NC(=O)[C@H](CC1CCCCC1)NC(=O)[C@H](CC1CCCCC1)NC(=O)[C@H](Cc1ccccc1)NC(=O)CCS)C(=O)N[C@@H](Cc1ccccc1)C(=O)N1CCC[C@H]1C(=O)N[C@@H](CC(N)=O)C(=O)N[C@@H](CC(=O)O)C(=O)N[C@@H](CCCCN)C(N)=O"}, "B2": {"name": "Mpr-F(Cha) (Cha)RNPNDK-NH2 (peptide)", "peptide": "[Mpa]F[Cha][Cha]RNPNDK-NH2", "SMILES": "N=C(N)NCCC[C@H](NC(=O)[C@H](CC1CCCCC1)NC(=O)[C@H](CC1CCCCC1)NC(=O)[C@H](Cc1ccccc1)NC(=O)CCS)C(=O)N[C@@H](CC(N)=O)C(=O)N1CCC[C@H]1C(=O)N[C@@H](CC(N)=O)C(=O)N[C@@H](CC(=O)O)C(=O)N[C@@H](CCCCN)C(N)=O"}, "B3": {"name": "Mpr-F(Cha) (Cha)RGPNDK-NH2 (peptide)", "peptide": "[Mpa]F[Cha][Cha]RGPNDK-NH2", "SMILES": "N=C(N)NCCC[C@H](NC(=O)[C@H](CC1CCCCC1)NC(=O)[C@H](CC1CCCCC1)NC(=O)[C@H](Cc1ccccc1)NC(=O)CCS)C(=O)NCC(=O)N1CCC[C@H]1C(=O)N[C@@H](CC(N)=O)C(=O)N[C@@H](CC(=O)O)C(=O)N[C@@H](CCCCN)C(N)=O"}, "B4": {"name": "Mpr-F(Cha) (Cha)RAPNDK-NH2 (peptide)", "peptide": "[Mpa]F[Cha][Cha]RAPNDK-NH2", "SMILES": "C[C@H](NC(=O)[C@H](CCCNC(=N)N)NC(=O)[C@H](CC1CCCCC1)NC(=O)[C@H](CC1CCCCC1)NC(=O)[C@H](Cc1ccccc1)NC(=O)CCS)C(=O)N1CCC[C@H]1C(=O)N[C@@H](CC(N)=O)C(=O)N[C@@H](CC(=O)O)C(=O)N[C@@H](CCCCN)C(N)=O"}, "B5": {"name": "Mpr-F(Cha) (Cha)RNPNDKY-NH2 (peptide)", "peptide": "[Mpa]F[Cha][Cha]RNPNDKY-NH2", "SMILES": "N=C(N)NCCC[C@H](NC(=O)[C@H](CC1CCCCC1)NC(=O)[C@H](CC1CCCCC1)NC(=O)[C@H](Cc1ccccc1)NC(=O)CCS)C(=O)N[C@@H](CC(N)=O)C(=O)N1CCC[C@H]1C(=O)N[C@@H](CC(N)=O)C(=O)N[C@@H](CC(=O)O)C(=O)N[C@@H](CCCCN)C(=O)N[C@@H](Cc1ccc(O)cc1)C(N)=O"}, "B6": {"name": "Mpr-F(Cha) (Cha)RNPND-NH2 (peptide)", "peptide": "[Mpa]F[Cha][Cha]RNPND-NH2", "SMILES": "N=C(N)NCCC[C@H](NC(=O)[C@H](CC1CCCCC1)NC(=O)[C@H](CC1CCCCC1)NC(=O)[C@H](Cc1ccccc1)NC(=O)CCS)C(=O)N[C@@H](CC(N)=O)C(=O)N1CCC[C@H]1C(=O)N[C@@H](CC(N)=O)C(=O)N[C@@H](CC(=O)O)C(N)=O"}, "B7": {"name": "SF(Cha) (Cha)RK-NH2 (peptide)", "peptide": "SF[Cha][Cha]RK-NH2", "modifications": "N-terminus assumed", "SMILES": "N=C(N)NCCC[C@H](NC(=O)[C@H](CC1CCCCC1)NC(=O)[C@H](CC1CCCCC1)NC(=O)[C@H](Cc1ccccc1)NC(=O)[C@@H](N)CO)C(=O)N[C@@H](CCCCN)C(N)=O"}, "B8": {"name": "SFF(Cha)RA-NH2 (peptide)", "peptide": "SFF[Cha]RA-NH2", "modifications": "N-terminus assumed", "SMILES": "C[C@H](NC(=O)[C@H](CCCNC(=N)N)NC(=O)[C@H](CC1CCCCC1)NC(=O)[C@H](Cc1ccccc1)NC(=O)[C@H](Cc1ccccc1)NC(=O)[C@@H](N)CO)C(N)=O"}, "B9": {"name": "Mpr-F(Cha) (Cha)RN-NH2 (peptide)", "peptide": "[Mpa]F[Cha][Cha]RN-NH2", "SMILES": "N=C(N)NCCC[C@H](NC(=O)[C@H](CC1CCCCC1)NC(=O)[C@H](CC1CCCCC1)NC(=O)[C@H](Cc1ccccc1)NC(=O)CCS)C(=O)N[C@@H](CC(N)=O)C(N)=O"}, "B10": {"name": "Mpr-F(Cha) (Cha)RNANDK-NH2 (peptide)", "peptide": "[Mpa]F[Cha][Cha]RNANDK-NH2", "SMILES": "C[C@H](NC(=O)[C@H](CC(N)=O)NC(=O)[C@H](CCCNC(=N)N)NC(=O)[C@H](CC1CCCCC1)NC(=O)[C@H](CC1CCCCC1)NC(=O)[C@H](Cc1ccccc1)NC(=O)CCS)C(=O)N[C@@H](CC(N)=O)C(=O)N[C@@H](CC(=O)O)C(=O)N[C@@H](CCCCN)C(N)=O"}, "B11": {"name": "Mpr-F(Cha) (Cha)RNPADK-NH2 (peptide)", "peptide": "[Mpa]F[Cha][Cha]RNPADK-NH2", "SMILES": "C[C@H](NC(=O)[C@@H]1CCCN1C(=O)[C@H](CC(N)=O)NC(=O)[C@H](CCCNC(=N)N)NC(=O)[C@H](CC1CCCCC1)NC(=O)[C@H](CC1CCCCC1)NC(=O)[C@H](Cc1ccccc1)NC(=O)CCS)C(=O)N[C@@H](CC(=O)O)C(=O)N[C@@H](CCCCN)C(N)=O"}, "B12": {"name": "Mpr-F(Cha) (Cha)RNPNDK (peptide)", "peptide": "[Mpa]F[Cha][Cha]RNPNDK-OH", "SMILES": "N=C(N)NCCC[C@H](NC(=O)[C@H](CC1CCCCC1)NC(=O)[C@H](CC1CCCCC1)NC(=O)[C@H](Cc1ccccc1)NC(=O)CCS)C(=O)N[C@@H](CC(N)=O)C(=O)N1CCC[C@H]1C(=O)N[C@@H](CC(N)=O)C(=O)N[C@@H](CC(=O)O)C(=O)N[C@@H](CCCCN)C(=O)O"}, "B13": {"name": "Mpr-F(Cha) (Cha)RNPNDKYE-NH2 (peptide)", "peptide": "[Mpa]F[Cha][Cha]RNPNDKYE-NH2", "SMILES": "N=C(N)NCCC[C@H](NC(=O)[C@H](CC1CCCCC1)NC(=O)[C@H](CC1CCCCC1)NC(=O)[C@H](Cc1ccccc1)NC(=O)CCS)C(=O)N[C@@H](CC(N)=O)C(=O)N1CCC[C@H]1C(=O)N[C@@H](CC(N)=O)C(=O)N[C@@H](CC(=O)O)C(=O)N[C@@H](CCCCN)C(=O)N[C@@H](Cc1ccc(O)cc1)C(=O)N[C@@H](CCC(=O)O)C(N)=O"}},
  "key": {"human thrombin receptor [1]": {"target": "T1, human thrombin receptor (human, UniProt P25116 42-425)", "T1 chain": "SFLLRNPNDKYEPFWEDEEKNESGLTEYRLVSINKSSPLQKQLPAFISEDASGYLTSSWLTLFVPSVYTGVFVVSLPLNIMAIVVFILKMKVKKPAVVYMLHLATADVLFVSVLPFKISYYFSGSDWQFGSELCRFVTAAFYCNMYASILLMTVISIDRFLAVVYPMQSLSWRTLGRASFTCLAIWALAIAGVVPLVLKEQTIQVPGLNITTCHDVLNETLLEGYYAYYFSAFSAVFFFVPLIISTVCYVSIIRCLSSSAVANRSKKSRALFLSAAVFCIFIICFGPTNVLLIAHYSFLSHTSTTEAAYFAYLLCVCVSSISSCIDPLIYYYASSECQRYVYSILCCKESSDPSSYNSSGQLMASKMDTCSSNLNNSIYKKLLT", "experiment": "cell-based or functional assay"}, "human thrombin receptor [2]": {"target": "T1, human thrombin receptor", "experiment": "cell-based or functional assay"}},
  "note": "Square brackets hold non-standard residues; d marks the D form. Ends that are not written are not given here. Cha = N[C@@H](CC1CCCCC1)C(=O)O; Mpa = O=C(O)CCS",
  "data": [
    {"binder": "SFLLQN-NH2", "note": "[SFLLQN-NH2]", "values": [
      {"measurement": "EC50 (concentration required to elicit a 50% maximal aggregation), platelet aggregation", "setting": "human thrombin receptor [1]", "result": 20.2, "unit": "µM"}
    ]},
    {"binder": "B1", "values": [
      {"measurement": "IC50 (50% inhibition of thrombin-induced platelet activation or aggregation)", "setting": "human thrombin receptor [2]", "result": "> 100", "unit": "µM"}
    ]},
    {"binder": "[Mpa]FLLRNPNC-NH2 (cysteine pairing not given here)", "note": "[Mpr-FLLRNPNC-NH2]", "values": [
      {"measurement": "IC50 (50% inhibition of thrombin-induced platelet activation or aggregation)", "setting": "human thrombin receptor [2]", "result": 400, "unit": "µM"}
    ]},
    {"binder": "B2", "values": [
      {"measurement": "IC50 (50% inhibition of thrombin-induced platelet activation or aggregation)", "setting": "human thrombin receptor [2]", "result": 25, "unit": "µM"}
    ]},
    {"binder": "B3", "values": [
      {"measurement": "IC50 (50% inhibition of thrombin-induced platelet activation or aggregation)", "setting": "human thrombin receptor [2]", "result": 20, "unit": "µM"}
    ]},
    {"binder": "B4", "values": [
      {"measurement": "IC50 (50% inhibition of thrombin-induced platelet activation or aggregation)", "setting": "human thrombin receptor [2]", "result": 40, "unit": "µM"}
    ]},
    {"binder": "B5", "values": [
      {"measurement": "IC50 (50% inhibition of thrombin-induced platelet activation or aggregation)", "setting": "human thrombin receptor [2]", "result": 75, "unit": "µM"}
    ]},
    {"binder": "B6", "values": [
      {"measurement": "IC50 (50% inhibition of thrombin-induced platelet activation or aggregation)", "setting": "human thrombin receptor [2]", "result": 50, "unit": "µM"}
    ]},
    {"binder": "B7", "values": [
      {"measurement": "EC50 (concentration required to elicit a 50% maximal aggregation), platelet aggregation", "setting": "human thrombin receptor [1]", "result": 0.82, "unit": "µM"}
    ]},
    {"binder": "SFLLKN-NH2", "note": "[SFLLKN-NH2]", "values": [
      {"measurement": "EC50 (concentration required to elicit a 50% maximal aggregation), platelet aggregation", "setting": "human thrombin receptor [1]", "result": 11.1, "unit": "µM"}
    ]},
    {"binder": "B8", "values": [
      {"measurement": "EC50 (concentration required to elicit a 50% maximal aggregation), platelet aggregation", "setting": "human thrombin receptor [1]", "result": 1.4, "unit": "µM"}
    ]},
    {"binder": "B9", "values": [
      {"measurement": "IC50 (50% inhibition of thrombin-induced platelet activation or aggregation)", "setting": "human thrombin receptor [2]", "result": 100, "unit": "µM"}
    ]},
    {"binder": "SFLLLN-NH2", "note": "[SFLLLN-NH2]", "values": [
      {"measurement": "EC50 (concentration required to elicit a 50% maximal aggregation), platelet aggregation", "setting": "human thrombin receptor [1]", "result": 44.9, "unit": "µM"}
    ]},
    {"binder": "[Mpa]F[Cha][Cha]RKPNDK-NH2", "note": "[Mpr-F(Cha) (Cha)RKPNDK-NH2]", "values": [
      {"measurement": "IC50 (50% inhibition of thrombin-induced platelet activation or aggregation)", "setting": "human thrombin receptor [2]", "result": 5, "unit": "µM"}
    ]},
    {"binder": "B10", "values": [
      {"measurement": "IC50 (50% inhibition of thrombin-induced platelet activation or aggregation)", "setting": "human thrombin receptor [2]", "result": 75, "unit": "µM"}
    ]},
    {"binder": "B11", "values": [
      {"measurement": "IC50 (50% inhibition of thrombin-induced platelet activation or aggregation)", "setting": "human thrombin receptor [2]", "result": 75, "unit": "µM"}
    ]},
    {"binder": "[Mpa]F[Cha][Cha]RNPNDKY", "note": "[Mpr-F(Cha) (Cha)RNPNDKY]", "values": [
      {"measurement": "IC50 (50% inhibition of thrombin-induced platelet activation or aggregation)", "setting": "human thrombin receptor [2]", "result": 40, "unit": "µM"}
    ]},
    {"binder": "B12", "values": [
      {"measurement": "IC50 (50% inhibition of thrombin-induced platelet activation or aggregation)", "setting": "human thrombin receptor [2]", "result": 30, "unit": "µM"}
    ]},
    {"binder": "B13", "values": [
      {"measurement": "IC50 (50% inhibition of thrombin-induced platelet activation or aggregation)", "setting": "human thrombin receptor [2]", "result": 80, "unit": "µM"}
    ]}
  ]
}
